The values below come from article PMC7488360 (Acta Pharmaceutica Sinica. B, 2020).

One series addresses HuR (human antigen R) (Homo sapiens, UniProt Q15717). The experiment in a line: SPR. The format is binding.
The next series concerns the target HuR RRM12 (UniProt Q15717 18-186). Kind of series: EMSA. (Mobility shift assays separate free from complexed probe on a gel.)
The target of another series is HuR full-length (UniProt Q15717 1-326). The experiment in a line: EMSA.
HuR full-length, sequence (Q15717 whole entry): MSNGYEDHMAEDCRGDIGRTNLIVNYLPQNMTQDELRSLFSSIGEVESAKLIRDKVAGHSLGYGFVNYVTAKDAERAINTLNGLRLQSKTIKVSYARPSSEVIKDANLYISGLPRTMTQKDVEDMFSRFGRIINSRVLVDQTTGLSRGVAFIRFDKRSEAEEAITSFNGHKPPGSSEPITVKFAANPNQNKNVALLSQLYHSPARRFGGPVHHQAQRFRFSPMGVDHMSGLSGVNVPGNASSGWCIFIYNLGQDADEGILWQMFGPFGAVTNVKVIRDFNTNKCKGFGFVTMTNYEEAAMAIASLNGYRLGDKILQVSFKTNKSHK

HuR (human antigen R), sequence (Q15717 18-186): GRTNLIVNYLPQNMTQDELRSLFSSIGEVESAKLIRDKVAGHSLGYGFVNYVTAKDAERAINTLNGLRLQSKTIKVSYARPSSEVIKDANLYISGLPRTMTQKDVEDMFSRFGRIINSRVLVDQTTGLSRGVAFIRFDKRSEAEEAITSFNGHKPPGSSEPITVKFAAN
HuR RRM12, sequence (Q15717 18-186): as above

`CC1=NN(c2ccc(C)c(C)c2)C(=O)/C1=N\Nc1cccc(-c2cccc(C(=O)O)c2)c1O` [eltrombopag] returned a dissociation constant (Kd) at HuR (human antigen R) of 2.5 µM.

B1: AREVegf-a (ssRNA)
RNA: AAUUCUACAUACUAAAUCUCUCUCCUUUUUUAAUUUUAAUAUUUG
With B1, the binding result in the series with HuR RRM12 and in the series with HuR full-length was “binds” throughout.

One may read the Kd as the constant that tells how readily two partners part at equilibrium. A high value points to lower affinity.
